Test results: patent US20120077731A1 (Ablynx, published 2012)

T1: Human soluble IL-6R (human, UniProt P08887 20-358)
T1 construct: Soluble recombinant form; biotinylated in some assays; also called hIL-6R; human IL-6R
T1 sequence (looked up): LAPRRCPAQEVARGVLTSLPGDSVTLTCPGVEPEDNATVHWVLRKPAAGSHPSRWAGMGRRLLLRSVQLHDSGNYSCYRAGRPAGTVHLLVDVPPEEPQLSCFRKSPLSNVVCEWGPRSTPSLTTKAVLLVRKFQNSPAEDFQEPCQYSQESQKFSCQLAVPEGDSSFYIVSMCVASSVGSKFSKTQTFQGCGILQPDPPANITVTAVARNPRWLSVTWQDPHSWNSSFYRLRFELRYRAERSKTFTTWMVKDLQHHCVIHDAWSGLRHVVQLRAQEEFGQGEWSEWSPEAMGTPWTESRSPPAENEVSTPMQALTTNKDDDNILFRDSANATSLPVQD

T2: Human membrane IL-6R on cells (human, UniProt P08887 20-468)
T2 sequence (looked up): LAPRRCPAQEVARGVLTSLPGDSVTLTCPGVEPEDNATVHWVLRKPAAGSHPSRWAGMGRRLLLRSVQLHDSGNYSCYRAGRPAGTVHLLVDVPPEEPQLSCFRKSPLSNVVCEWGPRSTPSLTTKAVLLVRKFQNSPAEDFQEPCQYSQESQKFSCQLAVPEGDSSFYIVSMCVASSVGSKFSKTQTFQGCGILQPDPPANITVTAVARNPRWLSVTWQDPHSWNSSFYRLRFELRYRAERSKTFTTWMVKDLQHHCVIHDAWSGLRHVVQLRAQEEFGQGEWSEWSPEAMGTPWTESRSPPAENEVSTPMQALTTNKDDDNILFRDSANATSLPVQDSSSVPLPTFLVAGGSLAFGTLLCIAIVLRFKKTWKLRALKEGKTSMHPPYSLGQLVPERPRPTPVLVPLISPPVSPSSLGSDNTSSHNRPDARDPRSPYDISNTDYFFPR

T3: Mouse IL-6R (mouse, UniProt P22272 20-364, limits assumed)
T3 construct: also called mouse sIL-6R
T3 sequence (looked up): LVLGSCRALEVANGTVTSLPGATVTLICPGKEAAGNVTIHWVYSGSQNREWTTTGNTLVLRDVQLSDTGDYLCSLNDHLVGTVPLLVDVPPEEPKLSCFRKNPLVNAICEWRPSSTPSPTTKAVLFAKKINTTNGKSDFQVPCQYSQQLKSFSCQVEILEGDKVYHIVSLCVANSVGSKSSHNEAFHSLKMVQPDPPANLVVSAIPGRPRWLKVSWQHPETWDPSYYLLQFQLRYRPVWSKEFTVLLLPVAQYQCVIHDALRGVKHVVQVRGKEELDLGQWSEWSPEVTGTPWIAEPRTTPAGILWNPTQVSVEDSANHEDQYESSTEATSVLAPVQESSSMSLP

B1: IL6R06 (VHH)
VHH: EVQLVESGGGLVQAGGSLRLSCAASGNIFDDNTMGWTWNRQPPGKQRELVAIIATDGSTNYADSVKGRFTISRDNAKNTVYLQMNSLKPEDTAVYYCNLFSLRLGRDYWGQGTQVTVSS
notes: also called PMP32E2; not shown: C-terminal c-myc and (His)6 tags
B2: IL6R01 (VHH)
VHH: EVQLVESGGGLVQPGGSLRLSCAASGFPLDYYAIGWFRQAPGKEREGVSCISSSDGSTYYADSVKGRFTISRDNAKNTVYLQMNSLKPEDTAVYYCALVHTTAQATGVPQREYEYEWWGQGTQVTVSS
notes: also called PMP28E11; not shown: C-terminal c-myc and (His)6 tags

Key:
Human soluble IL-6R [1] = target: T1, Human soluble IL-6R; test: inhibition of the IL-6/IL-6R interaction, summary table C-13
Experimental: (§1) Finally streptavidin donor beads were added and after 1 hour incubator the plate was read on the Envision microplate reader.

[2] = target: T2, Human membrane IL-6R on cells; test: cell-based or functional assay
[3] = target: T2, Human membrane IL-6R on cells; test: cell-based or functional assay; remark: listed apart in the source
Human soluble IL-6R [4] = target: T1, Human soluble IL-6R; test: SPR Biacore 3000, IL-6R amine-coupled to CM5
Experimental: (§2) Nanobodies were injected at 5 different concentrations between 1 and 50 nM. Flow rate was 45 μl/min in all experiments. Association and dissociation phase were 3 and 10 min, respectively. The chip was regenerated using Glycine/HCl pH 1.5.

Human soluble IL-6R [5] = target: T1, Human soluble IL-6R; test: SPR Biacore 3000, IL-6R amine-coupled to CM5; paired with the second koff of IL6R06 (r17c3)
Experimental: as §2

Human soluble IL-6R [6] = target: T1, Human soluble IL-6R; test: Alphascreen, 100 nM Nanobody, 0.4 nM bio-IL-6R; competitor: reference Fab
Human soluble IL-6R [7] = target: T1, Human soluble IL-6R; test: summary table C-13 of Nanobody characteristics, Kd on IL-6R
Experimental: as §2

Human soluble IL-6R [8] = target: T1, Human soluble IL-6R; test: SPR Biacore 3000, IL-6R amine-coupled to CM5; first koff listed; a separate determination, not the one behind the Kd
Human soluble IL-6R [9] = target: T1, Human soluble IL-6R; test: competition for IL-6R, competitor reference Fab, summary table C-13
Human soluble IL-6R [10] = target: T1, Human soluble IL-6R; test: Alphascreen, inhibition of bio-IL-6 binding to IL-6R
Experimental: as §1

[11] = target: T2, Human membrane IL-6R on cells; test: cell-based or functional assay; remark: listed apart in the source
Human soluble IL-6R [12] = target: T1, Human soluble IL-6R; test: Biacore off-rate, periplasmic extract
Human soluble IL-6R [13] = target: T1, Human soluble IL-6R; test: summary table C-13 of Nanobody characteristics, Kd on IL-6R; summary table C-13
Mouse IL-6R = target: T3, Mouse IL-6R; test: ELISA: plate coated with 1 µg/ml mouse IL-6R, 500 nM Nanobody, anti-myc + anti-mouse-HRP
Experimental: Detection was performed with anti-myc and anti-mouse-HRP as first and second antibody respectively.

IC50 (Human soluble IL-6R [1]) | IC50 (nM), XG-1 cell proliferation [2] | IC50 (nM) XG-1 [3] | koff (Human soluble IL-6R [4]) | Kd (Human soluble IL-6R [5]) | kon (Human soluble IL-6R [5]) | Residual reference-Fab binding to IL-6R (%) (Human soluble IL-6R [6]) | Kd (Human soluble IL-6R [7]) | koff (Human soluble IL-6R [8]) | Ref Fab competition (%) (Human soluble IL-6R [9]) | IC50 (Human soluble IL-6R [10]) | IC50 (nM), TF1 cell proliferation [11] | koff (Human soluble IL-6R [12]) | Kd (Human soluble IL-6R [13]) | Kd (Human soluble IL-6R [4]) | kon (Human soluble IL-6R [4]) | binding result (Mouse IL-6R) | Binder
1.21 nM | 42.1 nM | 42.1 nM | 0.00757 s⁻¹ | 7.1 nM | 1.07e+06 M⁻¹ s⁻¹ | 36% | 7.1 nM | 0.000886 s⁻¹ | 36% | 1.21 nM | 138 nM | 0.000886 s⁻¹ | – | – | – | – | B1
0.73 nM | – | – | 0.00011 s⁻¹ | – | – | 49% | – | – | 49% | 0.726 nM | – | – | 0.4 nM | 0.4 nM | 262000 M⁻¹ s⁻¹ | no binding (tested: 500 nM) | B2
